The values below come from publication doi:10.1101/2023.04.01.535177 (bioRxiv, 2023).

Test in all cases: SEC
Series [1] deals with Parsonsia alboflavescens homospermidine synthase, single mutant V269I (IXXXD motif) (Parsonsia alboflavescens).
Series [2] deals with Parsonsia alboflavescens homospermidine synthase, double mutant V269I D273N (IXXXN motif) (Parsonsia alboflavescens).
For series [3], the target named is Parsonsia alboflavescens homospermidine synthase, single mutant D273N (VXXXN motif) (Parsonsia alboflavescens).
The series “SEC” deals with the molecule itself.

As usually defined, the stoichiometry N is the number of molecules, sites or subunits per partner or assembly.

For the molecule “Parsonsia alboflavescens homospermidine synthase, single mutant V269I (IXXXD motif) (enzyme)”, the stoichiometry N in series [1] turned out to be 4. Consider “Parsonsia alboflavescens homospermidine synthase, double mutant V269I D273N (IXXXN motif) (enzyme)”, for which the stoichiometry N in series [2] was found to be 4. On to “Parsonsia alboflavescens homospermidine synthase, single mutant D273N (VXXXN motif) (enzyme)”, for which the stoichiometry N in series [3] was determined as 4.

B1: Parsonsia alboflavescens homospermidine synthase, wild type (VXXXD motif) (enzyme, UniProt A0A2P1M5T0 1-374, looked up)
chain: MGDDAIRQNFLDSARSNVFKALESLEGCKKIKGYDFNKGVNHRELLLSMVSTGFQASNLGDAIDVINQMRAWKLSDEPIPENCKEQEKDPKFRDSVRCKVFLGFTSNLISSGVRETIRYLAQHRMIDVLVTTAGGIEEDFIKCLAPTFKGDFSLPGAALRSKGLNRIGNLLVPNDNYCKFEDWIMPIFDKMLEEQLEEKVLWTPSRVIARLGKEINDESSYLYWAYKNKIPVYCPAITDGSIGDMLYFHSFRNPASLIVDIVQDVRNMDDEIVLAGLRKTGIIILGGGLPKHHICNANMMRNGADFAVFINTAQEFDGSDSGARPDEAISWGKIRSTAKHVKVHCDATIAFPLLVAETFAKGKSTWTKYLGYIY
Turning to B1, the “stoichiometry N” value in “SEC” was 4.
